Consider one substance from US20250270301A1.

Assay [1] concerns the target monomeric P301S 2N4R tau, pHrodo-labelled (human) (UniProt P10636). As to the kind of experiment: cell-based or functional assay.
Assay [2] concerns the target aggregated (oligomeric) P301S 2N4R tau, pHrodo-labelled (human) (UniProt P10636). Briefly: cell-based or functional assay.

Chain of monomeric P301S 2N4R tau, pHrodo-labelled (human) (P10636 other isoform, or with tags, fused parts or gaps P301S P301S): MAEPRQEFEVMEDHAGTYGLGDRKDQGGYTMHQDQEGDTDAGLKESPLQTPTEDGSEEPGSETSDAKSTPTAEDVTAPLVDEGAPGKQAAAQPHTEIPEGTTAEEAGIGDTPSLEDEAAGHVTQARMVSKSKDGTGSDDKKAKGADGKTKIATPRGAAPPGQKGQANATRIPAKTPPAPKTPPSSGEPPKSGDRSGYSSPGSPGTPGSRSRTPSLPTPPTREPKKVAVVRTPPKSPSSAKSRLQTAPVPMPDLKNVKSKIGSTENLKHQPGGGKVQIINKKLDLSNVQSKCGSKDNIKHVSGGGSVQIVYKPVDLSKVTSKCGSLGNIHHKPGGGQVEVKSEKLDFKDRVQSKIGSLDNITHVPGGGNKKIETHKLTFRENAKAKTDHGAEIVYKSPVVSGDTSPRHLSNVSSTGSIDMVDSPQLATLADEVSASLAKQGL
Chain of aggregated (oligomeric) P301S 2N4R tau, pHrodo-labelled (human) (P10636 other isoform, or with tags, fused parts or gaps P301S P301S): as above

Regarding “isotype control human IgG1 (anti-fluorescein, Absolute Antibody)”, the inhibition of monomeric tau uptake into human iPSC-derived neurons in assay [1] amounted to 6.2%. The same substance yielded an inhibition of aggregated tau uptake into human iPSC-derived neurons in assay [2] of 14.3%.
